Laboratory results published in US20050152899A1, “EphA2 agonistic monoclonal antibodies and methods of use thereof” (priority 2002, published 2005).
Blank lines part the entries; values can stand above or below the molecule they belong to.

Key:
[1] = tested on: MCF-7^EphA2 cells; assay: Colony formation in soft agar, MCF-7^EphA2 cells; type: cell-based
Method: (§1) Tumor cells were suspended in soft agar. Colony formation in soft agar was assayed as described in Zelinski et al. (2001, Cancer Res. 61: 2301-6). Antibodies or a control solution (PBS) was included in bottom and top agar solutions. […] Colony formation was scored microscopically using an Olympus CK-3 inverted phase-contrast microscope outfitted with a 40× objective. Clusters containing at least three cells were scored as a positive. The average number of colonies per high-powered field is shown. Ten separate high-power microscopic fields were averaged in each experiment, and the results shown are representative of at least three separate experiments.
(§2) A549 malignant lung cancer cells were incubated with either 10 μg/ml or 2.5 μg/ml of EA5 or EA2 monoclonal antibodies or a control (PBS). […] Benign MCF-7 breast epithelial tumor cells were converted to malignant cells by the overexpression of EphA2 (MCF-7^EphA2). Both tumor cell types were incubated with either EA5 monoclonal antibodies or a control (PBS). […] Results are reported as colonies per high-powered field (HPF).
(§3) Growth assays were conducted as follows. MCF-7^neo (control cells) or MCF7^EphA2 cells were seeded in 96-well plates. […] Colony formation in soft agar was performed as previously described (Zelinski et al., 2001, Cancer Res. 61: 2301-6) and scored microscopically, defining clusters of at least three cells as a positive. The data represent the average of ten separate high-power microscopic fields from each sample and representative of at least three separate experiments. Error bars represent the standard error of the mean of at least three different experiments as determined using Microsoft Excel software.
Sensitivity of MCF-7^EphA2 cells to tamoxifen was measured.
Growth MCF-7^EphA2 cells which had decreased EphA2 expression levels was assayed in soft agar.

[2] = tested on: control MCF-7 cells; assay: Colony formation in soft agar, control MCF-7 cells; type: cell-based
Method: as §1, §3
Sensitivity of MCF-7^EphA2 cells to tamoxifen was measured. […]

[3] = tested on: MCF-7^EphA2 cells; assay: Tumorigenic potential of MCF-7^EphA2 vs MCF-7^neo cells in mammary fat pad under tamoxifen; type: in vivo, athymic (nu/nu) mice; conditions: MCF-7^EphA2 vs control MCF-7^neo; tamoxifen 1 mg oral gavage 6 days per week, supplemental estrogen
Method: Six to eight week-old athymic (nu/nu) mice were purchased from Harlan Sprague Dawley (Indianapolis, Ind.). When indicated, a controlled release estradiol pellet (0.72 mg 17β-estradiol, 60-day formulation) was injected subcutaneously via a sterile 14-gauge trocar 24 hours prior to tumor implantation and pellets were replaced every 60 days for those experiments spanning >60 days in duration. 1×10^6 MCF-7^neo or MCF7^EphA2 cells were injected into the mammary fat pad under direct visualization. When indicated, tamoxifen (1 mg) was administered by oral gavage 6 days per week.

[4] = tested on: estrogen receptor; assay: Estrogen receptor activity, ERE-TK-CAT reporter; type: cell-based; conditions: control and MCF-7^EphA2 cells, tamoxifen 10^−6 M
Method: Estrogen receptor activity was measured using ERE-TK-CAT vector (which encodes a single ERE; a generous gift from Dr. Nakshatri, Indiana University School of Medicine) in the unstimulated state, after estradiol (10^−8 M) stimulation and tamoxifen (10^−6 M) inhibition. Cells were plated in phenol red free, charcoal stripped sera for 2 days and transfected with ERE-TK-CAT (5 μg) using calcium phosphate method. The β-galactosidase expression vector RSV/β-galactosidase (2 μg, Dr. Nakshatri's gift) was cotransfected as a control. Fresh media including the appropriate selection drugs were added 24 hours after transfection. Cells were harvested after 24 hours and CAT activity was evaluated as described (Nakshatri et al., 1997, Mol. Cell. Biol. 17: 3629-39).

[5] = target: T1, EphA2-Ephrin A1-Fc complex (Homo sapiens, UniProt P29317); assay: Binding to EphA2-Ephrin A1-Fc complex on microtiter plate; conditions: EphA2-Fc bound to immobilized Ephrin A1-Fc
T1 construct: consisting of the extracellular domain of EphA2 linked to human IgG1 constant region
Method: (§4) A microtiter plate was coated with […] Ephrin A1-Fc overnight at 4° C. A fusion protein consisting of the extracellular domain of EphA2 linked to human IgG1 constant region (EphA2-Fc) was incubated with and bound to the immobilized Ephrin A1-Fc. Biotinylated Ephrin A1-Fc or EA5 was incubated with the EphA2-Ephrin A1-Fc complex and amount of binding was measured.

[6] = target: T1, EphA2-Ephrin A1-Fc complex; assay: Competition for labeled EA5 on EphA2-Ephrin A1-Fc complex; type: binding; conditions: biotinylated EA5 10 μg/ml, 30 min.
Method: as §4
The EphA2-Ephrin A1-Fc complex was prepared as described above. Biotinylated EA5 (10 μg/ml) was then incubated with the complex for 30 min. Unlabeled competitor was incubated with EphA2-Ephrin A1-Fc-EA5 complex in the indicated amount. Unlabeled EA5 could displace the labeled EA5 at concentrations of 100 ng/ml or greater.

[7] = tested on: A549 malignant lung cancer cells; assay: Colony formation in soft agar, A549 cells; type: cell-based; conditions: 10 μg/ml or 2.5 μg/ml, 7 days at 37° C., vs PBS
Method: Tumor cells were suspended in soft agar. Colony formation in soft agar was assayed as described in Zelinski et al. (2001, Cancer Res. 61: 2301-6). Antibodies or a control solution (PBS) was included in bottom and top agar solutions. Cells were suspended in soft agar for 7 days at 37° C. in the presence of purified antibody or control solution (PBS), administered at the time of suspension. Colony formation was scored microscopically using an Olympus CK-3 inverted phase-contrast microscope outfitted with a 40× objective. Clusters containing at least three cells were scored as a positive. The average number of colonies per high-powered field is shown. Ten separate high-power microscopic fields were averaged in each experiment, and the results shown are representative of at least three separate experiments.
as §2

[8] = target: T2, EphA2 (Homo sapiens, UniProt P29317); assay: EphA2 tyrosine phosphorylation and degradation in A549 cells (immunoprecipitation / western blot); type: cell-based; design: endogenous in cells; conditions: A549 monolayers
Method: Western blot analyses and immunoprecipitations were performed as described previously (Zantek et al., 1999, Cell Growth Diff. 10: 629-38). Briefly, detergent extracts of cell monolayers were extracted in Tris-buffered saline containing 1% Triton X-100 (Sigma, St. Louis, Mo.). After measuring protein concentrations (BioRad, Hercules, Calif.), 1.5 mg of cell lysate was immunoprecipitated, resolved by SDS-PAGE and transferred to nitrocellulose (Protran, Schleicher and Schuell, Keene, N.H.). Antibody binding was detected by enhanced chemiluminescence (Pierce, Rockford, Ill.) and autoradiography (Kodak X-OMAT; Rochester, N.Y.).
Similar experiments were conducted with A549 cells. Monolayers of A549 cells were incubated at 37° C. in the presence of EA5 or EA2 or control (PBS) for either 10 minutes (FIGS. 2A-2B) or 5 hours (FIGS. 2C-2D). Cell lysates were then immunoprecipitated with an EphA2-specific antibody (D7), resolved by SDS-PAGE and subjected to western blot analysis with a phosphotyrosine-specific antibody (4G10, purchased from Upstate Biologicals, Inc., Lake Placid, N.Y.) (FIGS. 2A, 2C). The membranes were stripped and re-probed with the EphA2-specific antibody used in the immunoprecipitation (D7) as a loading control (FIGS. 2B, 2D). […] (FIG. 2D).

[9] = target: T2, EphA2; assay: EphA2 tyrosine phosphorylation and degradation in MDA-MB-231 cells (immunoprecipitation / western blot); type: cell-based; design: endogenous in cells; host or cells: MDA-MB-231; MCF-10A; conditions: MDA-MB-231 monolayers
Method: EphA2 antibodies promoted tyrosine phosphorylation and degradation of EphA2 in MDA-MB-231 (FIGS. 1A-1C) cells. Monolayers of cells were incubated in the presence of EA5 (FIGS. 1A-1B, lanes 2, 3) or EA2 (FIGS. 1A-1B, lanes 4, 5) or control (FIGS. 1A-1B, lane 1) for 8 minutes at 37° C. Cell lysates were then immunoprecipitated with an EphA2-specific antibody (D7, purchased from Upstate Biologicals, Inc., Lake Placid, N.Y. and deposited with the American Type Tissue Collection on Dec. 8, 2000, and assigned ATCC number PTA 2755), resolved by SDS-PAGE and subjected to western blot analysis with a phosphotyrosine-specific antibody (4G10, purchased from Upstate Biologicals, Inc., Lake Placid, N.Y.) (FIG. 1A). The membranes were stripped and re-probed with the EphA2-specific antibody used in the immunoprecipitation (D7) as a loading control.
Western blot analyses and immunoprecipitations were performed as described previously (Zantek et al., 1999, Cell Growth Diff. 10: 629-38). Briefly, detergent extracts of cell monolayers were extracted in Tris-buffered saline containing 1% Triton X-100 (Sigma, St. Louis, Mo.). […] Antibody binding was detected by enhanced chemiluminescence (Pierce, Rockford, Ill.) and autoradiography (Kodak X-OMAT; Rochester, N.Y.). […]

[10] = target: T2, EphA2; assay: Immunofluorescent staining of MDA-MB-231 and MCF-10A cells; type: binding; design: endogenous in cells; host or cells: MDA-MB-231; MCF-10A
From the text: The epitope of the EphA2 antibodies were characterized. EA5 and EA2 selectively bind to malignant cells. The anti-EphA2 monoclonal antibodies EA5 and EA2 bind malignant MDA-MB-231 breast epithelial tumor cells (FIGS. 11A-11B) more strongly than benign MCF-10A breast epithelial tumor cells (FIGS. 11C-11D) as shown by immunofluorescent staining. […] The anti-EphA2 monoclonal antibody EA5 identified malignant prostate cancer cells in formalin-fixed, paraffin-embedded archival clinical specimens (FIG. 12).
EA5 preferentially binds an EphA2 epitope exposed on cancer cells but not non-cancer cells. Non-transformed MCF-10A cells or transformed MDA-MB-231 cells were incubated with 10 μg/ml EA2 at 4° C. for 30 min. prior to fixation in a 3% formalin solution and immunolabeling with fluorophore-conjugated anti-mouse IgG.

T2 sequence (P29317 24-976): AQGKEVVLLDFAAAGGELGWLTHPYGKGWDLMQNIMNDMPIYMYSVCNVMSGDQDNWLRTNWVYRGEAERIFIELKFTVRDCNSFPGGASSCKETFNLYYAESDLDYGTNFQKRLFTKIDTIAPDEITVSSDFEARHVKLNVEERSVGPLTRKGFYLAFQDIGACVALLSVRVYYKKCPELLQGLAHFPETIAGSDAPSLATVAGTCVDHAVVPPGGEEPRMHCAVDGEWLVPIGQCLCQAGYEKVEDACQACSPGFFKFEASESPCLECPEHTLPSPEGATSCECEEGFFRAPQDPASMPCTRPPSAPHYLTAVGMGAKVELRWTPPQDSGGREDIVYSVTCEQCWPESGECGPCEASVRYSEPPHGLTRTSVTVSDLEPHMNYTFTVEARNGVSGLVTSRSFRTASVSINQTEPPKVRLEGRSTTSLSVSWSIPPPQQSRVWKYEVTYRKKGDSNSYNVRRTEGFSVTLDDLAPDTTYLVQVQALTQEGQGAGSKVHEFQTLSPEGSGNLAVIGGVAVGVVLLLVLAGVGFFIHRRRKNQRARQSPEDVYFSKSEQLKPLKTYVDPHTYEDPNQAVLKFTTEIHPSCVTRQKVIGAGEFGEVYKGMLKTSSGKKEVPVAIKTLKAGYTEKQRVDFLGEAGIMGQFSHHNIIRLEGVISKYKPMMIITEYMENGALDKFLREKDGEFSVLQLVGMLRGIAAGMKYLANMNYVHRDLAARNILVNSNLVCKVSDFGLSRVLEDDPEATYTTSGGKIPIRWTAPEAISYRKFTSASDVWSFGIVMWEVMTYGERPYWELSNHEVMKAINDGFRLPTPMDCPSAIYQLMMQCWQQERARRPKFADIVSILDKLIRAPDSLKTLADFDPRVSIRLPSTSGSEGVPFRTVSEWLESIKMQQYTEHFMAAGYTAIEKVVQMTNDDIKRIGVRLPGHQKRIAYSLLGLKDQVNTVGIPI
T1 sequence (P29317 24-537 limits assumed, one chain of several): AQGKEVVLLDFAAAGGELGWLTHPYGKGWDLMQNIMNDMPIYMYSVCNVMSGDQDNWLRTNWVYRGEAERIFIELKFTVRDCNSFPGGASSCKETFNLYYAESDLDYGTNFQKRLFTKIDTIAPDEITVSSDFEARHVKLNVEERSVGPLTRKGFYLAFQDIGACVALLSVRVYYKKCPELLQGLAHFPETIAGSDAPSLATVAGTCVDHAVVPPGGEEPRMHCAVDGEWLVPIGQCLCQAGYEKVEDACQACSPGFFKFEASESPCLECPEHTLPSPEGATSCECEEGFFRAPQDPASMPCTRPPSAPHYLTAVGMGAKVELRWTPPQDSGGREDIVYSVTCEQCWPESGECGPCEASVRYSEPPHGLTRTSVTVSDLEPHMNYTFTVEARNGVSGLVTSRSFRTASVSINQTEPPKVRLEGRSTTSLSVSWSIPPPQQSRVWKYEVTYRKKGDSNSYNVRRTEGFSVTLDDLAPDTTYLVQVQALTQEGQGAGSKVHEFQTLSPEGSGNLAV

Molecule: C[C@]12CC[C@@H]3c4ccc(O)cc4CC[C@H]3[C@@H]1CC[C@@H]2O [estradiol, 17β-estradiol, reference compound]
Effect of excess estradiol on tamoxifen inhibition of soft agar colonization ([1]; 1 μM tamoxifen and 1 μM 17β-estradiol, MCF-7 or MCF-7^EphA2 cells (FIG. 8A)): overcame the inhibitory effects of tamoxifen

Molecule: CC/C(=C(\c1ccccc1)c1ccc(OCCN(C)C)cc1)c1ccccc1 [tamoxifen]
inhibition at 1 µM ([1]; 336 h, MCF-7^EphA2 cells, 1 μM tamoxifen, 14 days (FIG. 8A), read-out: Inhibition of soft agar colonization): 25% | Decrease in soft agar colonization ([1]; MCF-7^EphA2 cells, tamoxifen 1 μM and/or EA5 10 μg/ml (FIG. 10C)): 25% | inhibition at 1 µM ([2]; Homo sapiens, MCF7, matched control MCF-7 cells, tamoxifen 1 μM (FIG. 10C), read-out: Inhibition of soft agar colonization): 75% | Reduction of soft agar colonization ([2]; control MCF-7 cells, 1 μM tamoxifen, 14 days (FIG. 8A)): at least 60% | Sensitivity of tumorigenic potential to tamoxifen [3]: less sensitive to tamoxifen | Estrogen receptor activity (CAT) [4]: remained sensitive to tamoxifen

B1: Ephrin A1-Fc: Fc form of the EphA2 ligand Ephrin A1, used biotinylated or unlabeled (protein)
chain: DRHTVFWNSSNPKFRNEDYTIHVQLNDYVDIICPHYEDHSVADAAMEQYILYLVEHEEYQLCQPQSKDQVRWQCNRPSAKHGPEKLSEKFQRFTPFTLGKEFKEGHSYYYISKPIHQHEDRCLRLKVTVSGKITHSPQAHDNPQEKRLAADDPEVRVLHSIGHS
modifications: left off: a dimerising Fc or GST
notes: Fc form of the EphA2 ligand Ephrin A1, used biotinylated or unlabeled
Amount of biotinylated protein bound to EphA2-Ephrin A1-Fc complex [5]: Very little additional Ephrin A1-Fc bound | Displacement of labeled EA5 by unlabeled competitor [6]: did not significantly displace labeled EA5

EphA2 phosphorylation ([8]; 10 minutes at 37° C.): increase in phosphorylation | EphA2 protein degradation ([8]; 5 hours at 37° C.): degradation of the EphA2 protein | EphA2 protein levels ([9]; 30 μg/ml, 24 hours at 37° C.): decrease | Levels of EphA2 phosphorylation ([9]; 8 minutes at 37° C., phosphotyrosine western blot): increase | Binding to malignant MDA-MB-231 vs benign MCF-10A cells [10]: more strongly
B2: EA2: EphA2 agonistic monoclonal antibody; hybridoma strain EA2.31, ATCC PTA-4380; VL SEQ ID NO:1, VH SEQ ID NO:5 (antibody, listed as Homo Sapiens, V domains shown)
VH: DVKLVESGGGLVKPGGSLKLSCAASGFTFSSYTMSWVRQTPEKRLEWVATISSGGTYTYYPDSVKGRFTISRDNAKNTLYLQMSSLKSEDTAMYYCTREAIFTYWGQGTLVTVSA
VL: DIKMTQSPSSMYASLGERVTITCKASQDINNYLSWFQQKPGKSPKTLIYRANRLVDGVPSRFSGSGSGQDYSLTISSLEYEDMGIYYCLKYDEFPYTFGGGTKLEIK
Cell growth in soft agar (colonies per high-powered field) [7]: inhibited cell growth in soft agar
